Data reported in patent US8535662B2, “Apyrase therapy for bleeding conditions” (Apt Therapeutics, Inc., priority 2010, dated 2013).

Assays:
[1] = system: pigs, coronary injury with stenting; assay: Coronary injury (balloon overstretch) and bare metal stent in pigs: platelet accumulation and luminal stenosis (Example 6); format: in vivo, pig; conditions: 30 days after stenting, six measurements in two pigs
Description: Coronary injury with or without stenting in pigs is regarded as the best preclinical model for simulation of human angioplasty (Touchard, A. G., et al., Thromb. Res. (2007) 120:477-484). One coronary artery was injured by balloon overstretch in each pig and the site of injury including some overlap with the non-injured vessel was covered with a single bare metal stent (BMS).
Accumulation of ^111In-labeled autologous platelets on the stents over the first 24 h was measured in 4/6 pigs in each group. Radiolabeled platelets were injected 15 min before the coronary catheterization and the hearts perfusion-fixed after 24 h to obtain the stented vessel segment for counting radiolabeled platelets.

[2] = system: C57BL/6J mice, myocardial ischemia; assay: Mouse model of cardiac ischemia/reperfusion injury (Example 8); format: in vivo; conditions: 24 hr reperfusion
Description: A mouse model of cardiac ischemia/reperfusion injury was used to determine the effect of apyrase agent on infarct size. Myocardial ischemia was produced in C57BL/6J mice via left anterior coronary artery ligation. Mice were treated with apyrase agent (1 mg/kg, IV) or saline 5 min prior to 60 min of experimentally-induced myocardial ischemia or 50 min after ischemia (n=6-8 per group). After 24 hr of reperfusion, hearts were excised and area at risk and infarct size were determined by Evan's blue and triphenyltetrazolium staining.

[3] = system: Fischer 344 rats, lung isograft; assay: Orthotopic left lung transplantation in rats after 18 hours of cold preservation, ischemia-reperfusion injury (Example 9); format: in vivo, rat; conditions: for TUNEL positive EC per 400× field: 4 hours after reperfusion, 0.66 mg/kg, N=7/group
Description: Fischer 344 rats (Harlan Sprague Dawley, Inc, Indianapolis, Ind.), weighing 250 to 300 grams, were subjected to orthotopic left lung transplantation.
The cuff technique (Robson, S. C., et al., Semin. Thromb. Hemost. (2005) 31:217 was used. In brief, after general anesthesia with intraperitoneal pentobarbital (65 mg/kg), mechanical ventilation, systemic heparinization (300 units), and median laparosternotomy, donor rat lungs were flushed through the main pulmonary artery with 20 mL of cold (4° C.) low-potassium dextran glucose solution at 20 cm H2O pressure. In apyrase agent-treated groups, 0.1 mg/L apyrase agent was added to the cold preservation medium. The heart-lung block was then removed with the lungs inflated at end-tidal volume. The left lung graft was isolated, prepared, and stored in low-potassium dextran glucose at 4° C. until transplantation. After 18 hours of cold preservation, recipient animals were anesthetized, intubated with a 14-gauge catheter, and underwent a left thoracotomy. The pulmonary vessels and bronchus were anastomosed with a standard cuff technique. In the sham group, the rats underwent anesthesia and thoracotomy alone. In apyrase agent-treated groups recipients received treatment intravenously through the internal jugular vein 7 minutes after graft reperfusion. In dose response studies apyrase agent was administered at a dose of either 0.07, 0.22 or 0.66 mg/kg of recipient weight. In all other studies apyrase agent was administered at a dose of 0.66 mg/kg of recipient weight. In the vehicle-treated groups, rats received a saline bolus 7 minutes after reperfusion.
The function of the left lung was assessed 4 hours after transplantation. Rats in each group were reanesthetized with pentobarbital. After tracheostomy, the animals were mechanically ventilated with 100% oxygen and a laparosternotomy was performed. The right hilar structures were clamped to isolate the left lung graft. The animals were ventilated for 5 minutes at a tidal volume of 1.5 mL, a respiratory rate of 100 breaths/min, and 1.0 cm H2O of positive end-expiratory pressure. Arterial blood gas analysis was performed with blood samples obtained from the ascending aorta. The lungs were flushed with 20 mL of cold (4° C.) saline solution, and the lung graft was excised and divided into 3 separate sections. The upper and middle sections were snap frozen. The upper section was used for enzyme-linked immunosorbent assay (ELISA) and the middle section was used for myeloperoxidase (MPO) assay. The lower section was weighed, dried at 70° C. for 48 hours, and then reweighed for calculation of the wet/dry (W/D) ratio.
Quantitative MPO activity was determined also previously described (Krawisz, J. E., et al., Gastroenterology (1984) 87:1344). Optical density was measured at 460 nm with a spectrophotometer (model PMQ II; Carl Zeiss, Oberkochen, Germany). Color development was linear from 5 minutes to 20 minutes. One unit of enzyme activity was defined as 1.0 optical density unit per minute per milligram of tissue protein at room temperature.
Proinflammatory cytokine and chemokine measurement was made on lung samples which were homogenized with T-PER Extraction Reagent (Pierce, Rockford, Ill.). Lung homogenates were centrifuged twice at 10,000 rpm at 4° C. for 5 min, and the supernatants were collected. The content of tumor necrosis factor-α (TNF-α, interleukin-1β (IL-1β) and macrophage inflammatory protein-2 (MIP-2) were determined by using ELISA kits (BioSource International, Inc, Camarillo, Calif.) in accordance with manufacturer's instructions.
For TUNEL assay, lung specimens harvested 4 hours after reperfusion were perfused with 20 mL isotonic sodium chloride solution and inflation fixed with 20 mL HistoChoice (Amresco Inc, Solon, Ohio). Specimens were cut, mounted, de-paraffinized, and then steam-treated with Dako target retrieval solution (Dako, Carpentaria, Calif.) and quenched with 3% hydrogen peroxide. […]

[4] = system: Wistar Furth recipients of Lewis lungs; assay: Allogenic rat lung transplant model, Lewis to Wistar Furth (Example 11); format: in vivo; conditions: rats, 0.66 mg/kg/day IV for 7 days
Description: Lewis donor lungs stored for a minimal cold ischemia time of 1 hr were engrafted into allogenic Wistar Furth recipients and treated for 7 days in the following manner:
1. Saline: Received Saline 250 μl/day
2. Apyrase: Received Apyrase agent, 0.66 mg/kg/day IV
3. CyA (standard): Received Cyclosporine A 25 mg/kg/day, IP (standard dose used in previous studies)
4. CyA (low): Received Cyclosporine A 5.0 mg/kg/day, IP (sub optimal dose)
5. CyA (low)+apyrase agent: Received Cyclosporine A 5.0 mg/kg/day, IP and Received apyrase agent, 0.66 mg/kg/day IV
On post-operative day 7 recipients were evaluated for lung graft function by assessing PaO2 (FIG. 10) and then sacrificed and scored blindly for vascular rejection (FIG. 11) using the ISHLT scoring system by a pathologist who routinely evaluates lung allograft rejection. The ISHLT scoring criteria is a scale from where a score of A0 there is no evidence of vascular rejection as in completely syngeneic recipients (e.g., Lewis to Lewis lung transplantation) to A4 as is almost always observed in Lewis to Wistar Furth Recipients. Statistical differences between treatment groups (n=10) were determined by the student t test where significance differences were assessed as p<0.05. Control group for the alloimmune response was the Lewis to Lewis lung transplant combination.

[5] = system: pigs, coronary injury with stenting; conditions: pig, in vivo

B1: sol CD39L3 R67G T69R (protein)
chain: EVLPPGLKYGIVLDAGSSGTRVYVYQWPAEKENNTGVVSQTFKCSVKGSGISSYGNNPQDVPRAFEECMQKVKGQVPSHLHGSTPIHLGATAGMRLLRLQNETAANEVLESIQSYFKSQPFDFRGAQIISGQEEGVYGWITANYLMGNFLEKNLWHMWVHPHGVETTGALDLGGASTQISFVAGEKMDLNTSDIMQVSLYGYVYTLYTHSFQCYGRNEAEKKFLAMLLQNSPTKNHLTNPCYPRDYSISFTMGHVFDSLCTVDQRPESYNPNDVITFEGTGDPSLCKEKVASIFDFKACHDQETCSFDGVYQPKIKGPFVAFAGFYYTASALNLSGSFSLDTFNSSTWNFCSQNWSQLPLLLPKFDEVYARSYCFSANYIYHLFVNGYKFTEETWPQIHFEKEVGNSSIAWSLGYMLSLTNQIPAESPLIRLPIEPPV
modifications: glycosylated; synthetically constructed apyrase
B1 was tested, and the average luminal stenosis [1] was 19.8±2%, the “reduction of infarct size compared to the control group” value ([2]; 1 mg/kg IV 5 minutes prior to ischemia, 60 min ischemia) was “approximately 50%” and the “reduction of infarct size” value ([2]; 1 mg/kg IV 50 min after ischemia) was “approximately 50%”. The “pulmonary edema (wet to dry weight ratio)” value ([3]; 0.22 mg/kg IV, 4 hours) was “trended to lower mean levels”, the “lung function (arterial PO2) compared to saline-treated recipients” value ([3]; 0.22 mg/kg IV, 4 hours after transplantation) was “trend towards better lung function” and the “lung graft histopathology (hematoxylin and eosin) compared to saline-treated recipients” value ([3]; 0.66 mg/kg IV 7 minutes after reperfusion) was “less apparent alveolar hemorrhage and microvascular injury”. The “pulmonary edema (wet to dry weight ratio)” value ([3]; 0.66 mg/kg IV, 4 hours) was “significantly attenuated”, the “lung function (arterial PO2) compared to saline-treated recipients” value ([3]; 0.66 mg/kg IV, 4 hours after transplantation) was “significant improvement” and the “MPO activity in lung grafts” value ([3]; 4 hours) was “reduced”. For the same molecule, the “expression of E-selectin on endothelial cells” value ([3]; 4 hours) was “reduced”, the “ADP concentration in the BAL fluid relative to saline-treated recipients” value ([3]; 4 hours after engraftment) was “significantly lower concentrations” and the “ATP concentration in the BAL fluid relative to saline-treated recipients” value ([3]; 4 hours after engraftment) was “significantly lower concentrations”. The “TUNEL positive EC per 400× field” value [3] was “significantly fewer apoptotic EC”, the “TUNEL positive EC per 400× field” value ([3]; listed as apyrase) was “three” and the “numbers of neutrophils recovered from the airways” value ([3]; 4 hours after transplantation) was “significant decrease”. The “total cells in the BAL” value ([3]; 4 hours after transplantation) was “significantly fewer cells”, the “intragraft level of TNFa (ELISA)” value ([3]; 4 hrs of reperfusion, saline about 75) was “about 35 pg/mg” and the “intragraft level of MIP-2 (ELISA)” value ([3]; 4 hrs of reperfusion, saline about 1,800) was “about 1,300 pg/mg”. For the same molecule, the “intragraft level of IL-1β (ELISA)” value ([3]; 4 hrs of reperfusion, saline about 2,200) was “about 1,100 pg/mg”, the “alloimmune responses in lung allograft recipients (PaO2, ISHLT vascular rejection score)” value [4] was “effective at suppressing alloimmune responses” and the “blood loss from a standardized incision of the abdominal wall” value [5] was “not increased”.
